Two molecules from patent US20170190749A1 can be followed below.

In assay [1] the target is T1, PhoCle0.1 large fragment after photocleavage (remainder of the protein).
T1 chain: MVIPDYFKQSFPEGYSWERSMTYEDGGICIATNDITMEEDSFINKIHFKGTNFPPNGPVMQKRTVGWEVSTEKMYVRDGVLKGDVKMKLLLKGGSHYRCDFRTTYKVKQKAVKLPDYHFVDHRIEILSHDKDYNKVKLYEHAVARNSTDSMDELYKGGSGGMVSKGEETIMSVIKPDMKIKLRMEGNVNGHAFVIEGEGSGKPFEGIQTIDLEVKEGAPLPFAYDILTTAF
Nature of the assay: spectroscopic and SDS-PAGE analyses of the protein before and after illumination.

For assay [2], the target named is T2, PhoCle0.3 large fragment after photocleavage (~20 kDa remainder of the PhoCle domain).
T2 chain: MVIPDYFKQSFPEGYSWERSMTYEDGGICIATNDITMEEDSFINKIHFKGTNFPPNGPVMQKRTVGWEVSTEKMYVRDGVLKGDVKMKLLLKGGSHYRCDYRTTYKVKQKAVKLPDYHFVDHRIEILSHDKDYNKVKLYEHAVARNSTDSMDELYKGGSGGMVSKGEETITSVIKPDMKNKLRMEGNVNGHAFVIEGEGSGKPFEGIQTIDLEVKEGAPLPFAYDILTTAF
Nature of the assay: decay of red fluorescence/absorbance following photocleavage.

HYGNRVFTKYPR (modifications not checked) [PhoCle0.1 small chromophore-containing peptide fragment after photocleavage] had a t0.5 of spontaneous dissociation after photocleavage in assay [1] of 500 s.
HYGNRVFTKYPR (modifications not checked) [PhoCle0.3 small chromophore-containing peptide fragment after photocleavage]: the t0.5 of peptide dissociation after photocleavage in assay [2] was 120 s.
